{
  "source": "the nanobody polyreactivity screen of Harvey et al. (2022)",
  "data": [
    {"test": "yeast display, Sf9 membrane polyspecificity reagent, FACS + sequencing; frameworks hold sequencing errors", "method_in_brief": "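Genes from sorted yeast were amplified by colony PCR, read by MiSeq 2 × 250 sequencing and filtered on CDR length. These cells carried a synthetic nanobody library in Saccharomyces cerevisiae BJ5465 and were sorted by FACS into low and high (top ~1%) gates on anti-HA and streptavidin fluorescence. Polyreactivity is labelled according to the gate of origin.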", "values": [
      {"sequence": "QVQLVESGSGLVQAGGSLRLSCAHSGFTVSYYVMGWYRQAPGKERELVAAISWSGGSTYYADSVKGRFTISLDNAKNTVYLQMNSLKPEDTAFYYCNADDWRDDYEYWGQGTQVTVSS", "polyreactivity (PSR sort gate)": "high polyreactivity"},
      {"sequence": "QVQLVESGVGIVQAGCSLRLSCAASGSIFRYYAMGLYRQAPGKERELVAGITASTGRTYYADSVKGRFTISRDNAKNTVYLQMNSLKPEDTAVYYCAARSRYYEYDYWGQGTQVTVSS", "polyreactivity (PSR sort gate)": "low polyreactivity"},
      {"sequence": "QVQLVESGVGIVQAGRSHRVSCAASGSTYNPYAMGWYRQAPGKESELVARIRGSGGSTYYADSVKVRFTISRDNAKNPVFLHMNSQKPEDTAVYYCATDDYYLSRYRLVGYYSWGQGTQVTVSS", "polyreactivity (PSR sort gate)": "high polyreactivity"},
      {"sequence": "QVQLVESGVGLDQARGSLRLSCAASGITFDDYAMGWYRQAPGKERELVAAISVSGGDTYYADSVKGRFTISRDNAKNTVYLQMNSLKPEDSAVYYCAAEEVSPRWYEYWGQGTQVTVSS", "polyreactivity (PSR sort gate)": "low polyreactivity"},
      {"sequence": "QVQLVESGVGLDQARVSLRLSCAASGFTFGQYVMGWYRQAPGKEREFVAIISRSVDSTYYADSVKGRFTISRDNAKNTVYLQMNSLNPEDTAVYYCNARGKRRGKIPYSSYASSYDSWGQGTQVTVSS", "polyreactivity (PSR sort gate)": "high polyreactivity"},
      {"sequence": "QVQLVESGVGLGQAGGSLRLSCAASGRIFSRYAMGWYRPAPGKERELVATITRRGGSTSYADSVKGRFTISRDNAKNTVFLQMNCLKPEDTAVYYCAAQSFYGIYYGKQDYDYWGQGTQVTVSS", "polyreactivity (PSR sort gate)": "high polyreactivity"},
      {"sequence": "QVQLVESGVGLLQAGGSLRISCAASGSIFFDNSMGRYRQAPGKERELVAAITWSGSRTYYADSVKGRFTISRDNAKNTVYLQMNSLKPEDTAVYYSNAVYWWYWALFTVGRYDYWGQGTQVTVSS", "polyreactivity (PSR sort gate)": "high polyreactivity"},
      {"sequence": "QVQLVESGVGLVKAGGSLRLSCAASGSTFNGYGMGWYRQAPGKERELVAAMSWSGGSTYYADSVKGRFTISRDNAKNTGYLLMNSLKPEDTAVYYCAALTHYGGYGYTYDYWGQGTQVTVSS", "polyreactivity (PSR sort gate)": "low polyreactivity"},
      {"sequence": "QVQLVESGVGLVQAGCSHRLSCAASGSTISAYDMGSYRQAPGKERELVAAITWIGGNTYYADSVKGRFTISRDNAKNTVYLQMNSLKPEDTAVYYCAAEEVPYDRDMDYWGQGTQVTVSS", "polyreactivity (PSR sort gate)": "low polyreactivity"},
      {"sequence": "QVQLVESGVGLVQAGGRLRLICAASGITFGPNALGWYRQAPGKERELVAAISWRGGSTYNADSVKGRFTISRDNGKNTVYLQMNSLKPEDTAVYYCAADLAYGAMVYWGQGTQVTVSS", "polyreactivity (PSR sort gate)": "low polyreactivity"},
      {"sequence": "QVQLVESGVGLVQAGGRLRLSCAASGSIFASSAMGWYRKAPGKERELVAVINSYDRTNYADSVKGRFTISRDNAKNTVYLKMNSLKPEDTAVYYCNADAIRIIPAYDYWGQGTQVTVSS", "polyreactivity (PSR sort gate)": "low polyreactivity"},
      {"sequence": "QVQLVESGVGLVQAGGSHPLSCAASGSTLRYAMGWNRQAPGKETELVAAISRTGGSTYYADSVKGRFTISRDNAKNTVYLQMNSLKPEDPAVYYCAARYFTSYPLYYYWGQGTQVTVSS", "polyreactivity (PSR sort gate)": "high polyreactivity"},
      {"sequence": "QVQLVESGVGLVQAGGSLRLICAASGRNFRTNAMGWYRQAPGKERELVAAISTGGGITKYADSVKGRFTISRDNSKNTVYLQMNSLKPEDTAVYYCAADAVNTLDYWGQGTQVTVSS", "polyreactivity (PSR sort gate)": "low polyreactivity"},
      {"sequence": "QVQLVESGVGLVQAGGSLRLICAASGSTFAYNDMGWYRQAPGKERELVAAINGGGGSTYYGDSVKGRFTISRDNAKNTVYLHMNSLKPEVTAVYYCAKGEWSYVDSFGPYYDLVYWGQGTQVTVSS", "polyreactivity (PSR sort gate)": "low polyreactivity"},
      {"sequence": "QVQLVESGVGLVQAGGSLRLICGASGFTFDYNSMVWYRQAPGKERELVAAISASGGSTYYADSVKGRFTISRDNAKNTVYLQMKSLKPEDTAVYYCNAGRVTRRDTFDYWGQGTQVTVSS", "polyreactivity (PSR sort gate)": "high polyreactivity"},
      {"sequence": "QVQLVESGVGLVQAGGSLRLRCAASGFIFIHNAMGWYRQAPGKERELVAAISYSGGSTYYADSVKGRFTISRDTAKNTVYLQMNSLKPEDTAVYFCNRVQYYRADRMDYWGQGTQVTVSS", "polyreactivity (PSR sort gate)": "low polyreactivity"},
      {"sequence": "QVQLVESGVGLVQAGGSLRLSCAAAGYIFFFYAMGWYRQAPGKERELVASITYRGGSTYYADSVKGRFTISRDNAKNTVYLHMNSLKPEDTAVYYCNVDGGGPLGPQGFPFDYWGQGTQVTVSS", "polyreactivity (PSR sort gate)": "low polyreactivity"},
      {"sequence": "QVQLVESGVGLVQAGGSLRLSCAASASTFYGYTMGWNRQAPGKERELVAAITSTGRTYYADSVKGRFTISRDNAKNTVYLQMNSLKPEDTAVYYCAKKSSARRYDYDYWGQGTQVTVSS", "polyreactivity (PSR sort gate)": "high polyreactivity"},
      {"sequence": "QVQLVESGVGLVQAGGSLRLSCAASGFIFPTNTMGWYRQAPGKEREFVARITRSGTNTYYADSVKGRFTISRDNAKNTVYLQMNSLKPEDTAVYYCATRYYHFNYWGQATQVTVSS", "polyreactivity (PSR sort gate)": "high polyreactivity"},
      {"sequence": "QVQLVESGVGLVQAGGSLRLSCAASGFIFYYYAMGWYRQAPGKERELVAAISTDGGSTYYADSVKGRFTISRDNAKNTVYLQMNSLKPEDTAVYYCNAPYYGWGYWPLEYIRYEYWGQGTQVTVST", "polyreactivity (PSR sort gate)": "low polyreactivity"},
      {"sequence": "QVQLVESGVGLVQAGGSLRLSCAASGFLFKYNAMGWYRQAPAKERELVAAISWSGSRTYYADSVKGRFTISRDNAKNTVYLQMNSLKPEDTAVYYCNAVSWRTSRYDYWGQGTQVTVSS", "polyreactivity (PSR sort gate)": "high polyreactivity"},
      {"sequence": "QVQLVESGVGLVQAGGSLRLSCAASGFTFPYYAMGWYIQAPGKERELVAAISSGGRTNYADSVKGRFTISRDNAKNTVYLQMNSLKPEDTAVYDCATRSYVFAWEFNYWGQVTQVTVSS", "polyreactivity (PSR sort gate)": "high polyreactivity"},
      {"sequence": "QVQLVESGVGLVQAGGSLRLSCAASGFTFQYYAMGWYRQAPGKERELVAAITRGDSTNYADSVKGRFTISRDNAKNTVYLQMNSLKPEDTAVYYCAAGSAPSYWGGWYYERDYWGQGTQVTVSS", "polyreactivity (PSR sort gate)": "low polyreactivity"},
      {"sequence": "QVQLVESGVGLVQAGGSLRLSCAASGFTLGRNAMGWYRQAPGKERELVASISGRGGSSYYADSVKGRFTISRDNAKNSVYLQMNSLKPEDTAVYYCAARGVSGKYYYWGQGTQVTVSS", "polyreactivity (PSR sort gate)": "high polyreactivity"},
      {"sequence": "QVQLVESGVGLVQAGGSLRLSCAASGGIFFYYAMGWSRQAPGKERELVAAISYSGGSTYYADSVKGRFTISRDNAKHTVYLQMNSVKPDDTAVNYCAAVPDYYEYSPYDYWGQGTQVTVSS", "polyreactivity (PSR sort gate)": "low polyreactivity"},
      {"sequence": "QVQLVESGVGLVQAGGSLRLSCAASGGTFVTYAMGWFSQAPGKERELVAAISATDGRTYNADSVKGRFTISRDNAKNTVYLQMNSLKPADTAVYYCAAVGPYTQSRGKYSNLFYWGQGTQVTVSS", "polyreactivity (PSR sort gate)": "high polyreactivity"},
      {"sequence": "QVQLVESGVGLVQAGGSLRLSCAASGIIFKNYTRGWDRPAPWKEWELVAAISWRGGRTYYADSVKGRFTISRDNAKNTVYLQMNSLKPEDTAVYYCAKELYVSYRGGPWVDYWGQGTQVTVSS", "polyreactivity (PSR sort gate)": "high polyreactivity"},
      {"sequence": "QVQLVESGVGLVQAGGSLRLSCAASGIIFSSYAMGWYRQAPGKERELVAAITWNGGRTYYADSVKGRFTISRDNAKNSVYLQMNSLKPEDTAVYYCAALQGRSSARQDSYGYWGQGTQVTVSS", "polyreactivity (PSR sort gate)": "high polyreactivity"},
      {"sequence": "QVQLVESGVGLVQAGGSLRLSCAASGIIFTSNTMGWYRPAPGKEREFVASINWNGSSTYADSVKGRFTISRDNAKNTVYLQMNSLKPEDTAVYYCNADYKRNSVQFSLYDYWGQGTQVTVSS", "polyreactivity (PSR sort gate)": "low polyreactivity"},
      {"sequence": "QVQLVESGVGLVQAGGSLRLSCAASGIIFVTYTMAWYRQAHGKEREFVAAITRRGSRTYYADSVKGRFTISRDNAKNTVYLQMNSPKPEDTAVYYCNAVPRWSYVDEDSWGQGTQVTVSS", "polyreactivity (PSR sort gate)": "high polyreactivity"},
      {"sequence": "QVQLVESGVGLVQAGGSLRLSCAASGIIFYPNAMGWYRQAPGKERELVAAISWRSGSTYYADSVKGRFTISRDNAKKTVYLQMNSLKPEDTAVYYCNADFWYSYGYDYWGQGTQVTVSS", "polyreactivity (PSR sort gate)": "low polyreactivity"},
      {"sequence": "QVQLVESGVGLVQAGGSLRLSCAASGITFYGYAMGWYRQAPGKDRELVAAINWGGTGTYYADSVKGRFTISRDNAKNTVYFQMNSLKPEDTAVYYCNKAGDPIADPTAGKRQFDYWGQGTQVTVSS", "polyreactivity (PSR sort gate)": "low polyreactivity"},
      {"sequence": "QVQLVESGVGLVQAGGSLRLSCAASGITSRYYAMGCYRQAPGKERELVAAISGNGGRTYYADSVKGRFTISRDIAKNSVYFQMNSMKPEDTAVYYCAARAHKTRHNYWGQGTQVTVSS", "polyreactivity (PSR sort gate)": "high polyreactivity"},
      {"sequence": "QVQLVESGVGLVQAGGSLRLSCAASGLIFYRYAMGWNRQAPGKERELVAAISWSGGTTYYADSVKGRFTISRDNAKNTVYLQMNSLKPEDTAVYYCAATRLRTEYYWGQGTQVTVSS", "polyreactivity (PSR sort gate)": "high polyreactivity"},
      {"sequence": "QVQLVESGVGLVQAGGSLRLSCAASGRIFHLYAMGWYRQAPGKERELVAAITFSGGSTYYADSVKGRFTISRDNAMNTVYLQMNSLKPEDTAVYYFAKRSFYWFSSRLPFKYDYWGQGTQVTVSS", "polyreactivity (PSR sort gate)": "low polyreactivity"},
      {"sequence": "QVQLVESGVGLVQAGGSLRLSCAASGRIFPGNVMGWYIQAPGKERELVAAISRGGGSTYYADSVKGRFTISRDIAKNTVYAQMNSLKPEDTAVYYCNVLRYQSRFRYDYWGLGTQVTVSS", "polyreactivity (PSR sort gate)": "high polyreactivity"},
      {"sequence": "QVQLVESGVGLVQAGGSLRLSCAASGRIFSKYAMGWYRQAPGKERELVAAISANGGGSTYYADSVKGRFTISRDNAKNTFYLQMNSLKPEDSAVYYCAALAYSTTRGRLDYWGQGTQVTVSS", "polyreactivity (PSR sort gate)": "high polyreactivity"},
      {"sequence": "QVQLVESGVGLVQAGGSLRLSCAASGRIISRYAMGWYRQAPGKERELDAAISRRGGSTYYADSVKGRFTISRDNAKNTVYLQMNSLKPEDTAVYYCNADTGNRGYDYWGQGTQVTVSS", "polyreactivity (PSR sort gate)": "high polyreactivity"},
      {"sequence": "QVQLVESGVGLVQAGGSLRLSCAASGRLFQYYAMGWYRQAPGKERELVASISGTGGSTYYADSVKGRFTISRDNAKNTVYLQMNSLKPEDTAVYYCAVRVKLQYWREYNYWGQGTQVTVSS", "polyreactivity (PSR sort gate)": "high polyreactivity"},
      {"sequence": "QVQLVESGVGLVQAGGSLRLSCAASGRTFDLYAMGWYRQAPGKERELVAAITKGGGSTYYADSVKGRFTISRDNAKNTVYLQMNSLKPEDTAVYYCAARKYKRIYRISSGIGYYWGQGTQVTVSS", "polyreactivity (PSR sort gate)": "high polyreactivity"},
      {"sequence": "QVQLVESGVGLVQAGGSLRLSCAASGRTFWYYGMGWYRQAPGKERELVAAISRSGGRTYYADSVKARFTISRDNAKNTVYLQMNSLKPEDTAVYYCGASYRRTFDYWGQGTQVTVSS", "polyreactivity (PSR sort gate)": "high polyreactivity"},
      {"sequence": "QVQLVESGVGLVQAGGSLRLSCAASGRTIDHYAMGWYRQAPGKERELVAAISTTGGSTYYADSVKGRFTISRDNAKNTVYLQMNSLKPEDTAVYYCAARGLRTGGYWGQCTQVTVSS", "polyreactivity (PSR sort gate)": "high polyreactivity"},
      {"sequence": "QVQLVESGVGLVQAGGSLRLSCAASGRTIKANAMGWYRQAPGKERELVAAISRRGGRTYYADSVKGRFTISRDNAKNTVYLQMNSLKPEDTAVYYCAVRWYSYRQRYNYWGQGTQVTVSS", "polyreactivity (PSR sort gate)": "high polyreactivity"}
    ]}
  ]
}
